Measurements taken from publication PMC5941314, “Structural insights into the nanomolar affinity of RING E3 ligase ZNRF1 for Ube2N and its functional implications” (Biochemical Journal, 2018).

T1: ZNRF1^CTD (C-terminal domain of ZNRF1, residues 139–227) (UniProt Q8ND25 139-227)
T1 construct: ZNRF1, RING E3 ubiquitin ligase, residues 139-227 of the full-length protein (ZnF and RING domains); also called ZNRF1 C-terminal domain; ZRNF1^CTD; source: E. coli Rossetta2 (DE3), purified (HisTrap, SEC)
T1 sequence (looked up): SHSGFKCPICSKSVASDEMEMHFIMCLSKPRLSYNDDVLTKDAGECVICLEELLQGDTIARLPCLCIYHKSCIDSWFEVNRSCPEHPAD

T2: ZNRF1 full-length (UniProt Q8ND25 1-227)
T2 construct: ZNRF1, RING E3 ubiquitin ligase, full-length (ends at residue 227); The C-terminal strep-tag II is called non-cleavable; also called ZNRF1^FL; source: E. coli Rossetta2 (DE3), purified (HisTrap, StrepTrap HP, desalted); not shown: strep-tag II, C-terminal, kept
T2 sequence (looked up): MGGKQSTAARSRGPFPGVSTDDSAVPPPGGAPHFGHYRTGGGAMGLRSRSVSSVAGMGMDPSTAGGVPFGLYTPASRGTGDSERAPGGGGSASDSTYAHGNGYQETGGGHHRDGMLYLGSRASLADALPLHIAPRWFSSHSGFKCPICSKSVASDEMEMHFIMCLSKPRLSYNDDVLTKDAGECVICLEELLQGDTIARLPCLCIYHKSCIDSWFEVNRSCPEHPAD

B1: Ube2N (enzyme, UniProt P61088 1-152, looked up)
chain: MAGLPRRIIKETQRLLAEPVPGIKAEPDESNARYFHVVIAGPQDSPFEGGTFKLELFLPEEYPMAAPKVRFMTKIYHPNVDKLGRICLDILKDKWSPALQIRTVLLSIQALLSAPNPDDPLANDVAEQWKTNEAQAIETARAWTRLYAMNNI
notes: Ube2N, ubiquitin-conjugating enzyme E2 N; also called wtUbe2N; source: E. coli Rossetta2 (DE3), purified (ion exchange, SEC)
B2: ZNRF1^(CTD, E183A) (domain or fragment, UniProt Q8ND25 139-227, looked up)
chain: SHSGFKCPICSKSVASDEMEMHFIMCLSKPRLSYNDDVLTKDAGACVICLEELLQGDTIARLPCLCIYHKSCIDSWFEVNRSCPEHPAD
notes: ZNRF1, RING E3 ubiquitin ligase, residues 139-227 with E183A; also called ZRNF1^CTD,E183A; E183A mutant; source: E. coli Rossetta2 (DE3), purified
B3: ZNRF1^RING (residues 166–227) (domain or fragment, UniProt Q8ND25 166-227, looked up)
chain: SKPRLSYNDDVLTKDAGECVICLEELLQGDTIARLPCLCIYHKSCIDSWFEVNRSCPEHPAD
notes: ZNRF1, RING E3 ubiquitin ligase, residues 166-227 (RING domain); also called RING domain of ZNRF1; source: E. coli Rossetta2 (DE3), purified (HisTrap, SEC)

How the values were obtained:
Settings in all cases: both partners purified
[1] = biological target: T1, ZNRF1^CTD (C-terminal domain of ZNRF1, …); assay: ITC; ZNRF1^CTD in the cell, Ube2N in the syringe; 25°C; Na-phosphate pH 8.0, 300 mM NaCl; single site model
[2] = biological target: T1, ZNRF1^CTD (C-terminal domain of ZNRF1, …); assay: ITC; ZNRF1^CTD in the cell, Ube2N in the syringe; 25°C; Na-phosphate pH 8.0, 450 mM NaCl; single site model
[3] = biological target: T1, ZNRF1^CTD (C-terminal domain of ZNRF1, …); assay: ITC; ZNRF1 construct (10–30 µM) in the cell, E2 in the syringe; 25°C; 20 mM sodium phosphate pH 8.0, 150 mM NaCl; single site model
ZNRF1 full-length = biological target: T2, ZNRF1 full-length; assay: as above
[4] = biological target: B3; assay: as above
ZNRF1^(CTD, E183A) = biological target: B2; assay: as above
Ube2N = biological target: B1; assay: as above

dH [3] | stoichiometry N [3] | Binder | other results
-10.5 kcal/mol | 0.915 | B1 | dH [1]: -9.63 kcal/mol; stoichiometry N [1]: 0.984; dH [2]: -9.26 kcal/mol; stoichiometry N [2]: 0.96; Kd (ZNRF1 full-length): 49.5 nM; dH (ZNRF1 full-length): -9.17 kcal/mol; stoichiometry N (ZNRF1 full-length): 0.842; dH [4]: -10.9 kcal/mol; stoichiometry N [4]: 0.913; dH (ZNRF1^(CTD, E183A)): -9.42 kcal/mol; stoichiometry N (ZNRF1^(CTD, E183A)): 0.848
-10.2 kcal/mol | 1.04 | Ube2N/Ube2V1 complex (complex, Ube2N, ubiquitin-conjugating enzyme E2 N; Ube2V1, ubiquitin-conjugating enzyme E2 variant 1; also called Ube2N/V1; source: E. coli Rossetta2 (DE3), each purified, mixed in stoichiometric amounts, complex isolated by SEC) chain 1: MAGLPRRIIKETQRLLAEPVPGIKAEPDESNARYFHVVIAGPQDSPFEGGTFKLELFLPEEYPMAAPKVRFMTKIYHPNVDKLGRICLDILKDKWSPALQIRTVLLSIQALLSAPNPDDPLANDVAEQWKTNEAQAIETARAWTRLYAMNNI chain 2: not shown | 
 |  | B2 | Kd (Ube2N): 459 nM
-8.54 kcal/mol | 0.854 | Ube2N^R14E (enzyme, UniProt P61088 1-152, looked up, Ube2N, ubiquitin-conjugating enzyme E2 N, with R14E; source: E. coli Rossetta2 (DE3), purified (ion exchange, SEC)) MAGLPRRIIKETQELLAEPVPGIKAEPDESNARYFHVVIAGPQDSPFEGGTFKLELFLPEEYPMAAPKVRFMTKIYHPNVDKLGRICLDILKDKWSPALQIRTVLLSIQALLSAPNPDDPLANDVAEQWKTNEAQAIETARAWTRLYAMNNI | 
-8.69 kcal/mol | 0.958 | Ube2N^R14A (enzyme, UniProt P61088 1-152, looked up, Ube2N, ubiquitin-conjugating enzyme E2 N, with R14A; source: E. coli Rossetta2 (DE3), purified (ion exchange, SEC)) MAGLPRRIIKETQALLAEPVPGIKAEPDESNARYFHVVIAGPQDSPFEGGTFKLELFLPEEYPMAAPKVRFMTKIYHPNVDKLGRICLDILKDKWSPALQIRTVLLSIQALLSAPNPDDPLANDVAEQWKTNEAQAIETARAWTRLYAMNNI | 
-5.64 kcal/mol | 0.828 | Ube2N^S96R (enzyme, UniProt P61088 1-152, looked up, Ube2N, ubiquitin-conjugating enzyme E2 N, with S96R; source: E. coli Rossetta2 (DE3), purified (ion exchange, SEC)) MAGLPRRIIKETQRLLAEPVPGIKAEPDESNARYFHVVIAGPQDSPFEGGTFKLELFLPEEYPMAAPKVRFMTKIYHPNVDKLGRICLDILKDKWRPALQIRTVLLSIQALLSAPNPDDPLANDVAEQWKTNEAQAIETARAWTRLYAMNNI | 
-8.38 kcal/mol | 0.966 | Ube2N^R14D (enzyme, UniProt P61088 1-152, looked up, Ube2N, ubiquitin-conjugating enzyme E2 N, with R14D; source: E. coli Rossetta2 (DE3), purified (ion exchange, SEC)) MAGLPRRIIKETQDLLAEPVPGIKAEPDESNARYFHVVIAGPQDSPFEGGTFKLELFLPEEYPMAAPKVRFMTKIYHPNVDKLGRICLDILKDKWSPALQIRTVLLSIQALLSAPNPDDPLANDVAEQWKTNEAQAIETARAWTRLYAMNNI | 
 |  | B3 | Kd (Ube2N): 49.4 nM
-9.62 kcal/mol | 1.05 | Ube2N^A98T (enzyme, UniProt P61088 1-152, looked up, Ube2N, ubiquitin-conjugating enzyme E2 N, with A98T; source: E. coli Rossetta2 (DE3), purified (ion exchange, SEC)) MAGLPRRIIKETQRLLAEPVPGIKAEPDESNARYFHVVIAGPQDSPFEGGTFKLELFLPEEYPMAAPKVRFMTKIYHPNVDKLGRICLDILKDKWSPTLQIRTVLLSIQALLSAPNPDDPLANDVAEQWKTNEAQAIETARAWTRLYAMNNI | 
